Measurements published in patent publication US20240417459A1 (CELLDEX THERAPEUTICS, published 2024).

Molecular target: T1, human ILT4 expressed on HEK293 cells (human, UniProt Q8N423 22-597)
T1 construct: also called LILRB2; LIR2
Experiment: bifunctional flow cytometry: bispecific bound to HEK293 cells expressing human ILT4, then human PD-L1-msFc detected with PE anti-mouse IgG Fc
Method: Binding of bispecific constructs to ILT4 and PD-L1 was assessed using HEK293 cells expressing human ILT4. In brief, dilutions of the bispecific constructs were allowed to bind to the ILT4 expressing cell before adding human PD-L1-msFc that was detected with PE labeled goat anti-mouse IgG Fc-specific probe.

T1 sequence (Q8N423 other isoform, or with tags, fused parts or gaps limits assumed): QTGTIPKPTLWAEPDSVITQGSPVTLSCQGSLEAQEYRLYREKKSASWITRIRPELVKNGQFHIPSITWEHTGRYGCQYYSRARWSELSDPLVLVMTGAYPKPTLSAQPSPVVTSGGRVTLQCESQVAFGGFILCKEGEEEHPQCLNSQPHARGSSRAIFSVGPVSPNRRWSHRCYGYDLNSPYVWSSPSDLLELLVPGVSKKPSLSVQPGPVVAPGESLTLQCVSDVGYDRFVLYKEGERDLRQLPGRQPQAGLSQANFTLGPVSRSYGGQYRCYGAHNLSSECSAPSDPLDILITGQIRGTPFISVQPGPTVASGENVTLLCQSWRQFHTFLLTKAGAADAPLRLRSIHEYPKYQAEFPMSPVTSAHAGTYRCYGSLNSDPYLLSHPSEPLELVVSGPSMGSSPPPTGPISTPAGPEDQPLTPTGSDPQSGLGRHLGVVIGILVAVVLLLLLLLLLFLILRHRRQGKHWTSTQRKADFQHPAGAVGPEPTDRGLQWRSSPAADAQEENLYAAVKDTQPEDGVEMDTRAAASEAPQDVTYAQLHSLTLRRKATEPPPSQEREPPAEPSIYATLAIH

B1: 9H9-7B1 HL (bispecific antibody, human IgG1, kappa)
heavy: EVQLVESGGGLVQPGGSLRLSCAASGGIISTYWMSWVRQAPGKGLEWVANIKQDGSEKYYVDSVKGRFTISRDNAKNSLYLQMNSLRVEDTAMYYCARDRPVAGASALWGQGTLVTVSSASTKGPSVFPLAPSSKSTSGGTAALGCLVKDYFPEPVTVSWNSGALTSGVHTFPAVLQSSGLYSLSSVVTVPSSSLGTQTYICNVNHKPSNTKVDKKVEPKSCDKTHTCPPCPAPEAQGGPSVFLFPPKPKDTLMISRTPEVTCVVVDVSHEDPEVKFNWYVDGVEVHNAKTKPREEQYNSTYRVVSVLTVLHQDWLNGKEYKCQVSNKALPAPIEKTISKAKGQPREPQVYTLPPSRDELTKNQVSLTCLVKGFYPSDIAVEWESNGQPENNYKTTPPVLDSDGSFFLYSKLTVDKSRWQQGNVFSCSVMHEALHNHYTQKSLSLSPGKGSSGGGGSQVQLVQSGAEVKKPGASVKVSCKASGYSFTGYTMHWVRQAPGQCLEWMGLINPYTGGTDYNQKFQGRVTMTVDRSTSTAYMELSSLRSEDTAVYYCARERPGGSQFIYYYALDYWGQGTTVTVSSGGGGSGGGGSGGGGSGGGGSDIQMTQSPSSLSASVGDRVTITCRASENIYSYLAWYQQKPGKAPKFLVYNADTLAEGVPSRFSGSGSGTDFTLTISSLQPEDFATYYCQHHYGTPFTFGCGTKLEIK
light: DIQMTQSPSTLSASVGDRVTITCRASQSISGWLAWYQQKPGKAPKLLIYKASSLESGVPSRFSGSGSGTEFTLTISSLQPDDFATYYCQQYYGSSRTFGQGTNVEIKRTVAAPSVFIFPPSDEQLKSGTASVVCLLNNFYPREAKVQWKVDNALQSGNSQESVTEQDSKDSTYSLSSTLTLSKADYEKHKVYACEVTHQGLSSPVTKSFNRGEC
notes: Tetravalent bispecific: anti-PD-L1 9H9 on a mutated human IgG1 (AQQ Fc) with the 7B1 scFv (VH-VL) at the C-terminus of the heavy chain; also called 9H9 AQQ-7B1 H2L1; PD-L1xILT4 bispecific antibody
B1: binds.

B2: 9H9-7B1 LH (bispecific antibody, human IgG1, kappa)
heavy: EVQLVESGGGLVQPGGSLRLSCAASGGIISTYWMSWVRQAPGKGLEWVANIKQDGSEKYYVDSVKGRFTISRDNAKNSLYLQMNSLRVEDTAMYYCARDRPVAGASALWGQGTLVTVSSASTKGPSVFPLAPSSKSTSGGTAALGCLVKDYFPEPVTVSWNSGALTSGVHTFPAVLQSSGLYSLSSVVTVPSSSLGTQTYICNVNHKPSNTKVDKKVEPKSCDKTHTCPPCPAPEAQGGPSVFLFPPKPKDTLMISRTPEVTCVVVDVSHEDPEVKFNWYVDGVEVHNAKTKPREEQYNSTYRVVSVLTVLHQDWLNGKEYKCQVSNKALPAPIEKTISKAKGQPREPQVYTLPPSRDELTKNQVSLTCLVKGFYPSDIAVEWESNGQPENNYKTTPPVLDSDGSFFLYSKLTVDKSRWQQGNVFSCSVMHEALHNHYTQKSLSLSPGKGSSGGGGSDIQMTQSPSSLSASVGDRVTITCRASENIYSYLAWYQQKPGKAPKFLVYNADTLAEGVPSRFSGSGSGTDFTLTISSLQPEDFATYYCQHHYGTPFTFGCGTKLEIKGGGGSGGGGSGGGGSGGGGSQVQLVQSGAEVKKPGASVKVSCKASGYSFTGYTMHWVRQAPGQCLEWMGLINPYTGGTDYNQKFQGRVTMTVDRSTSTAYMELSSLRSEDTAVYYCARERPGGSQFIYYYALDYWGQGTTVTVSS
light: DIQMTQSPSTLSASVGDRVTITCRASQSISGWLAWYQQKPGKAPKLLIYKASSLESGVPSRFSGSGSGTEFTLTISSLQPDDFATYYCQQYYGSSRTFGQGTNVEIKRTVAAPSVFIFPPSDEQLKSGTASVVCLLNNFYPREAKVQWKVDNALQSGNSQESVTEQDSKDSTYSLSSTLTLSKADYEKHKVYACEVTHQGLSSPVTKSFNRGEC
notes: Tetravalent bispecific as 9H9-7B1 HL, but with the scFv in the VL-VH orientation; also called 9H9 AQQ-7B1 L1H2; PD-L1xILT4 bispecific antibody
B2: binds.
